# Results taken from patent CN110938146A (UNIV HUAZHONG AGRICULTURAL, dated 2020).
# T1: TIM-3重组蛋白 (human, UniProt Q8TDQ0 22-200, limits assumed)
# T1 construct: also called 重组TIM-3蛋白; 固定化TIM-3
# T1 sequence (looked up): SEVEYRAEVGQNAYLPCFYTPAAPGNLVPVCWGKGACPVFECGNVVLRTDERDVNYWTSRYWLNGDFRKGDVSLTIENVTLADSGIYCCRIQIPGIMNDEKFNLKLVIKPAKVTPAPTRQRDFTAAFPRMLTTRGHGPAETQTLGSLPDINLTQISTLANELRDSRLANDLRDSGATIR
# B1: TIM-3-CX153 (VHH)
# VHH: QSMEESGGRLVKPDETLTLTCTVSGFSLSSYSMIWVRQAPGKGLEWIGIIGTTGNTYYASWAKGRFTISKTSTTVDLKMTSLTSEDTATYFCARYYADGVFDLWGQGTLVTVSS
# notes: Expressed in E. coli BL21 from pET28 and purified on a His nickel column; also called TIM-3-CX153-HisFlag; TIM-3-CX153单抗
# Target: T1, TIM-3重组蛋白
# Experiment: ELISA: TIM-3 coated at 5 ug/mL, biotinylated sdAb titrated 1:2 from 200 ug/mL, HRP-streptavidin, Prism fit
binder,measurement,value
B1,Kd,278 nM
